Data reported in the nanobody polyreactivity screen of Harvey et al. (2022).

Assay: yeast display, Sf9 membrane polyspecificity reagent, FACS + sequencing; frameworks hold sequencing errors
How it was run: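 In a synthetic yeast display library (Saccharomyces cerevisiae BJ5465), nanobody expression was induced with galactose for 36–48 hours. FACS gates were set low and high (top ~1%) using anti-HA fluorescence for expression and streptavidin fluorescence for binding of the Sf9 membrane reagent. Each polyreactivity label is drawn from the gate of origin.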

QVQLVESGGGLVQEGGSLRLSCAASGSIYGWDAMGWYRQAPGQEREYVAAIDYSDGGRTYSADSVKGRFTISRDPAKNTVYLQMNSLKPADTAVYYCAAGYVYPHYFIDEYWGQGTQVTVSS
polyreactivity (PSR sort gate): high polyreactivity

QVQLVESGGGLVQEGGSLRLSCAASGSTFERNAMGWYRQAPGKERELVAAISAIGDSTYYADSVKGRFTISRDNAKNTVYLQMKSLNPEDTAVYYCAARYTRYHIGRGYYYWGQGTQVTVSS
polyreactivity (PSR sort gate): high polyreactivity

QVQLVESGGGLVQEGGSLRLSCAASGSTFKYYAMGWYRQAPGKERELVAAISKGATRTYYADSVKGRFTISRDNAKNTVYLQMNSLKPEDTAVYYCAARGRWNVPARRDYWGQGTQVTVSS
polyreactivity (PSR sort gate): high polyreactivity

QVQLVESGGGLVQEGGSLRLSCAASGSTFLKYDMGWYRQAPGNERELVAAISWDGGSTYYADSVKGRFTISRDNAKNTVYLQMNSLKPEDTAVYYCNADYDVYLTICYYYGEFDYWGQGTQVTVSS
polyreactivity (PSR sort gate): low polyreactivity

QVQLVESGGGLVQEGGSLRLSCAASGSTFSSYAMGWYRQAPGKERELVAAISWSGGSTYYADSVKGRFTISRDNAKNTVYLQMISLKPEDTAVYYCAAYTYSFRANHDYWGQGTQVTVSS
polyreactivity (PSR sort gate): high polyreactivity

QVQLVESGGGLVQEGGSLRLSCAASGSTFSWYTMGWYRQAPGKERELVAAITRGGTTYYADSVKGRFTISRDNAKNTVYLQMISLKPEDTAVYYCAARYSRDVRMGYWGQGTQVTVSS
polyreactivity (PSR sort gate): high polyreactivity

QVQLVESGGGLVQEGGSLRLSCAASGTFYDYVMGLYRPAPGKERELVATISDNDGSTYYADSVKGRFTISRDNAKNTVYLQKNSLKPEDTALYYCNAGRTWPIVADYSWLSYGSWGQGTQVTVSS
polyreactivity (PSR sort gate): high polyreactivity

QVQLVESGGGLVQEGGSLRLSCAATGSTFDANAMGWYRQAPGKERELVATISDGGSTNYADSVKGRFTISRDNAKNTVYLQMNSLKPEDTAVYYCAAVKLFLGLGYDYWGQGTQVTVSS
polyreactivity (PSR sort gate): low polyreactivity

QVQLVESGGGLVQEGGSLRLSCAPSGFIFRRNAMGAYRQAPGKERELVAAITKSGGSTYYADSVKGRFTISRDNAKNTVYLQMNSLKPEDTAVYYCAAPTWTRSSFDYWGQGTQVTVSS
polyreactivity (PSR sort gate): high polyreactivity

QVQLVESGGGLVQEGGSLRLSCSDSGRILRRYTMGWYRQAPGKERELVAAISSGGNTYYADSVKGRFTISRDNAKNTVYLQMNSLKPEDTGVDYCAARVRRYWEYDYWGKGTQVTVSS
polyreactivity (PSR sort gate): low polyreactivity

QVQLVESGGGLVQEGGSLRLSWAASGSTFARYAMGWYRQAPGKERELVAAISRRGGSTYYADSVKGRFTISRDKAKNTVYVQMHRLKPEDTGVSYCAARYGIISSFEYDYWGQGTQVTVSS
polyreactivity (PSR sort gate): high polyreactivity

QVQLVESGGGLVQEGGSLSLSCAASGFTFYYYAMGLYRQAPGKERELVASISWRGGSTYYADSVKGRFTISRDNAKNTVYLQMNSLKPEDTAVYYCAAQKRGSPGYRRDYWGQGTQVAVSS
polyreactivity (PSR sort gate): high polyreactivity

QVQLVESGGGLVQEGGSLSLSCAASGITLSLYAMGRYRQAPGKERELVAAISRSGGSTYYAYSVKGRFTISRDNAKNTVYLQMNSLKPVDTAFFYCATSWTPNYFVTSDYWGQGTQVTVSS
polyreactivity (PSR sort gate): high polyreactivity

QVQLVESGGGLVQEGGTLRLSCAASGSISIRNAMGWYRQAPGKERELVAAITYSGGSTYYADSVKGRFTISRDTAKNTVYLQMNSLKPEDTAVYYCAKDHYRFRYDYWGQGTQVTVSS
polyreactivity (PSR sort gate): low polyreactivity

QVQLVESGGGLVQERGSLRLSCAASGSIFFPYAMGWSRQAPGKDRELVAAITRGGNTKYADSVKGRFTISRDNAKNTVYIQMNSLKPEDTAVFYCAARGASIPYGYWGQGTQVTVSS
polyreactivity (PSR sort gate): high polyreactivity

QVQLVESGGGLVQGGGSLRLSCAASGFIFRYYAMGWYRQAPGKERELVAAINGRGDSTYYADSVKGRFTISRDNAKNTVYLQMNSLKPEDTAVYYCAAQGYRYLSRDRYDYWGQGTQVTVSS
polyreactivity (PSR sort gate): high polyreactivity

QVQLVESGGGLVQGGGSLRLSCAASGFIFSRYAMGWYRPAPGKERELVAAISRTGSTNYADSVKGRFTISRDNAKNTVYLQMNSLNPEDTAVYYCNARYITFNGYGYGYWEQGTQVTVSS
polyreactivity (PSR sort gate): high polyreactivity

QVQLVESGGGLVQGGGSLRLSCAASGLIFYHYAMGWYRQAPGKEREFVAAITVSGGSTSYADSVKGRFTISRDNAKNTVDLQMNSLKPEDNAVYYSADRVNYRSPGVSKGRDYWGQGTQVTVSS
polyreactivity (PSR sort gate): low polyreactivity

QVQLVESGGGLVQGGGSLRLSCAASGSIFSTYVMGWYRQGPGKERELVAAISRRGGSTYYADSVKGRFTISRDNAKNTVYLQMNSLNPADTAVYYCAADGTVGRRDYWGQGTQVTVSS
polyreactivity (PSR sort gate): high polyreactivity

QVQLVESGGGLVQGGGSLRLSCAASGSIFYPYAMGWYRQAPGKERELVARITSSTGSTYYADSVKGRCTISRATAKNTVYLQMTSLKPEDTAVYYCNARRQRNKSYNYWGQGTQVTVSS
polyreactivity (PSR sort gate): high polyreactivity

QVQLVESGGGLVQGGGSLRLSCAASGSISDVYAMGWYRQAPGKERELVAANTSGASTYYADSVKGRFTISRDNAKNTVYLQMNSLKPEDTAVYYCAADSDSQWGMDYWGQGTQVTVSS
polyreactivity (PSR sort gate): low polyreactivity

QVQLVESGGGLVQGGGSLRLSCAASGSNLYKNPMGWYRPAPGKERELVASITYSGGRTNYADSVKGRFTISRDTAKNTVYLQMNSLKPEDTSVYYCPAAYVYYNPAYRYAPTAVDYDYWGQGTQVTVSS
polyreactivity (PSR sort gate): low polyreactivity

QVQLVESGGGLVQGGGSLRLSCAASGSTFWANAMGWYRQATGKERELVAGITWNAGSTYYADSVKGRFTISRDNAKNPVYLQMNRLKPEDTAVFYCAASYHFQGWGPGYNSWGQGTQVTVSS
polyreactivity (PSR sort gate): low polyreactivity

QVQLVESGGGLVQGGGSLRLSCASSGSIFGWNAMGWYRPAPGKERELVAAISFSGSCTFYADSVKGRFTISRDNAKNTVYLQMNSLKPEDTAVYDCAAEPYSVYEYYYWGQGTQVTGSS
polyreactivity (PSR sort gate): high polyreactivity

QVQLVESGGGLVQPGGSLRLSCAASGGTFYRYAMGWYIQAPGKERELVAAISSRGGSTYYADSVKGRYTISRDNAKNTVYLQMNSLKPEDTAVYYCAALFYLTQWQYDYWGQGTQVTVSS
polyreactivity (PSR sort gate): high polyreactivity

QVQLVESGGGLVQPGGSLRLSCAASGIISFYNAMGWYRPAPGKERELVAAITWSVGSTYYADSVKGRFTISRDNAKNTVYLQMNSLKPEDTAVYYCNVSPGFWRSIPLYYNLRYGYWGQGTQVTVSS
polyreactivity (PSR sort gate): low polyreactivity

QVQLVESGGGLVQPGGSLRLSCAASGLTISYYAMGWYRQAPGKEREFVAAITSRGGDTYYADSVKGRFTISRDNAKNTVYLQMNSLKPEDTAVYYCAVRPRYYGTYRYYYWGQGTQVTVSS
polyreactivity (PSR sort gate): high polyreactivity

QVQLVESGGGLVQPGGSLRLSCAASGRILYYHAMAWYRQAPGKERELVARISSGGSTNYADSVKGRFTISRDNAKNTVYLQMNSLKPEDTAVSYCAVAKGGLAWGVGRGGRYDYWGQGTQVTVSS
polyreactivity (PSR sort gate): low polyreactivity

QVQLVESGGGLVQPGGSLRLSCAASGSIFGYNAMGWYRPAPGKERELVAVITRSDGSTYYADSVKGRFTISRDNAKNTVYLQMNSLKPEDTAVYYCNAETHVYYWGVVIYEYNYWGQGTQVTVSS
polyreactivity (PSR sort gate): low polyreactivity

QVQLVESGGGLVQPGGSLRLSCAASGSIYTNAMGWYRQAPGKERELVAAISWSGGRTYYADSVKGRFTISRDNAKNTVYFQLNSLKPEDTAVYYCNTRGTRIASGHYYWGQGTQVTVSS
polyreactivity (PSR sort gate): high polyreactivity

QVQLVESGGGLVQPGGSLRLSCAASGSTFWLYAMGWYRQAPGQERELVAAISARTGSTYYADSVKGRFTISRDNAKNTVYLQMNSLKPEDTAVYYCNVRYRGTPYGYWGQGTQVTVSS
polyreactivity (PSR sort gate): low polyreactivity
